Where “and” joins values, the source holds several entries; their conditions need not be identical. Equal entries are not always repeated.
B1: 抗人TNFa抗体-01 (antibody, human IgG1, kappa)
heavy: not shown
light: EIVLTQSPDFQSVTPKEKVTITCRASQFVGYSIHWYQQKPDQSPKLLIKYASESRSGVPSRFSGSGSGTDFTLTINSLEAEDAATYYCQQSHSWHFTFGQGTKLEIKRTVAAPSVFIFPPSDEQLKSGTASVVCLLNNFYPREAKVQWKVDNALQSGNSQESVTEQDSKDSTYSLSSTLTLSKADYEKHKVYACEVTHQGLSSPVTKSFNRGEC
notes: also called 抗人TNFa-01; pCI-TNF-01
B2: 抗人TNFa抗体-02 (antibody, human IgG1, kappa)
heavy: not shown
light: B1 light
notes: Full-length human IgG1 made in CHO cells; Same doubt about plain or PEGylated form as for m1; also called 抗人TNFa-02; pCI-TNF-02

How the values were obtained:
人TNFα [1] = molecular target: T1, 人TNFα (human, UniProt P01375 77-233); experiment: cell-based or functional assay
人TNFα [2] = molecular target: T1, 人TNFα; experiment: cell-based or functional assay; remark: listed apart in the source
人TNFα [3] = molecular target: T1, 人TNFα; experiment: SPR (Biacore), TNFa coupled to the chip, antibody as analyte
人TNFα [4] = molecular target: T1, 人TNFα; experiment: ELISA, plate coated at 0.1 ug/well, antibody dilution series

T1 sequence (P01375 77-233 limits assumed): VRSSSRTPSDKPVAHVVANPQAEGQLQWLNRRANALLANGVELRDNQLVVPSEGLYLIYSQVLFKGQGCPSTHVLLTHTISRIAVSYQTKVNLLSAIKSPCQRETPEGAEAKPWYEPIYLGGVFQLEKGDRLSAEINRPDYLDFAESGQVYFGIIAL

Row | Binder | IC50(pM), L929细胞保护试验 (人TNFα [1]) | IC50(pM), L929细胞保护试验, 平均值 (人TNFα [1]) | IC50 relative to humira, L929细胞保护试验 (人TNFα [2]) | neutralising activity relative to humira, L929细胞保护试验 (人TNFα [2]) | Kd (人TNFα [3]) | koff (人TNFα [3]) | kon (人TNFα [3]) | lowest detected concentration relative to humira (人TNFα [4])
1 | B1 | 0.56 pM and 0.938 pM and 0.46 pM | 0.51 pM | ~0.2 fold of humira IC50 | ~5 fold of humira | 0.326 nM | 0.000185 s⁻¹ | 568000 M⁻¹ s⁻¹ | 0.5 fold of humira
2 | B2 | 0.34 pM and 0.25 pM and 0.234 pM | 0.275 pM | ~0.1 fold of humira IC50 | ~10 fold of humira | 0.33 nM | 0.000188 s⁻¹ | 571000 M⁻¹ s⁻¹ | 0.5 fold of humira
